Data: IntAct's records for PubMed 26040717

B1: Autophagy-related protein 39 (Saccharomyces cerevisiae), Q06159 (parent)
chain: MSEEDDHWNLVRLRRLRKGREGEEQSSKSEISLDSLHESSFAGEDDEDFDADVLSNTSSEESAQMNRIYDFRTSNEFSNAGVNIDQTGVPTISESFDTLSGSNVGGTVLPSMEGSKLKDSTIRNSSTLSDHIIDKSEGKSAKLKMWHVIMLSSLLSMTFSYLALEYSLTGDVLAGFKSQQSLRNNERKLLYGNIDFVDKKSYDSSSDSLSQWAPSGKYYVDFDNHIAYPLKDDDLMGWRRYKTDLVILWYTTKARMKDGWHKRINKINGGRIKLHLFLKNSFKSAQESLRVLHKEQKRRWKRLFVLLHNKYRQFSPHIKRYFDHSCQKAKQCWSGSRLQLRKLRFKSMKPFRVFQFKVRKDTNWFVKQLKRFGLKLQHSRMYKAMSECRKKNYFKCKH
partner: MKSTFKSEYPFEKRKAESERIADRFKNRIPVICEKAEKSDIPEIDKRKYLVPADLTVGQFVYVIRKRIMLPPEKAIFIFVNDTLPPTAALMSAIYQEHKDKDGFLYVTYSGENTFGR
B2: Autophagy-related protein 8 (Saccharomyces cerevisiae), P38182 (parent)
chain: B1 partner
partner: B1 chain
B3: Autophagy-related protein 8 (Saccharomyces cerevisiae), P38182 (parent)
chain: B1 partner
partner: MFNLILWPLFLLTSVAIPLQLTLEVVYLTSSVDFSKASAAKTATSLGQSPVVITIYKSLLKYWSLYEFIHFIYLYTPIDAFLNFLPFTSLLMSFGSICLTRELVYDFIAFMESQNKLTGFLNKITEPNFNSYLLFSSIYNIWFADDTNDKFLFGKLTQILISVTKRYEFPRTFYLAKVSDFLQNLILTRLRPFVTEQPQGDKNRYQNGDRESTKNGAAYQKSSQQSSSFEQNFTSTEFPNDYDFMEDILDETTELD
B4: Autophagy-related protein 40 (Saccharomyces cerevisiae), Q99325 (parent)
chain: B3 partner
partner: B1 partner
B5: Autophagy-related protein 39 (Saccharomyces cerevisiae), Q06159 (parent)
chain: B1 chain
partner: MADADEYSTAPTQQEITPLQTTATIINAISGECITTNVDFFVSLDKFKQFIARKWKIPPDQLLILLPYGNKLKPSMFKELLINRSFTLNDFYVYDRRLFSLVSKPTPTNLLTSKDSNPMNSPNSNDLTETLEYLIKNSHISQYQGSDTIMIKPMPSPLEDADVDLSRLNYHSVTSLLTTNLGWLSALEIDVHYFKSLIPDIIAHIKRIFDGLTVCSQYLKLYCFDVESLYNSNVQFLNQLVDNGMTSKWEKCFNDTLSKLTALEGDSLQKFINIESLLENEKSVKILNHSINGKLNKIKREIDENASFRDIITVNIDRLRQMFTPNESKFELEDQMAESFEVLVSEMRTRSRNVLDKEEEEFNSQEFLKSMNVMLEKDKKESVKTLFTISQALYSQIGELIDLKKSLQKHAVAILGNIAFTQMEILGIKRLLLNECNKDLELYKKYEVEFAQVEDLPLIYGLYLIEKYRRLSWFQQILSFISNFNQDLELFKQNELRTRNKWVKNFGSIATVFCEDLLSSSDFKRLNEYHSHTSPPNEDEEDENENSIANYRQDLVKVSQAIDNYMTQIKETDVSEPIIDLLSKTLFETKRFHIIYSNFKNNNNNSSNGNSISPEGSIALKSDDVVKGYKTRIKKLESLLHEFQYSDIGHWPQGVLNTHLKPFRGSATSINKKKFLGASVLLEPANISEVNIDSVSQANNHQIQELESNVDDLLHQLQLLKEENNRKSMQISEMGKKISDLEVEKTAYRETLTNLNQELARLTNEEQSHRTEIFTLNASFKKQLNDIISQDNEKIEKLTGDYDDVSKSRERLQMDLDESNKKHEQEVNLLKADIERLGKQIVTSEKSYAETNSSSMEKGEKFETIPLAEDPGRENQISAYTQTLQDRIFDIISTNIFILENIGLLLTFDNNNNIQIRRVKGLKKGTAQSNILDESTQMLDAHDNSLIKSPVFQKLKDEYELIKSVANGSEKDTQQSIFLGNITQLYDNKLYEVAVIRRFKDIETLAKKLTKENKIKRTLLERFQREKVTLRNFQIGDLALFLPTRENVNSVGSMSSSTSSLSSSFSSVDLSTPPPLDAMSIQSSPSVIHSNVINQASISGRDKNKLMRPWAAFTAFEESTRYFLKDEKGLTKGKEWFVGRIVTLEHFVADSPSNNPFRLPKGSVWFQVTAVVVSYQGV

Variants of: B1
Conditions: with atg8_yeast ATG8, P38182

Row | effect of a mutation on the interaction | Variant
1 | disrupting interaction strength | W8A;V11A

Variants of: B2
Conditions: with atg39_yeast ATG39, Q06159

Row | effect of a mutation on the interaction | Variant
2 | disrupting interaction strength | P52A;R67A

Variants of: B2
Conditions: with atg39_yeast ATG39, Q06159
Remark: another data set of the same source

Row | effect of a mutation on the interaction | Variant
3 | decreasing interaction strength | P52A;R67A

Variants of: B3
Conditions: with atg40_yeast ATG40, Q99325

Row | effect of a mutation on the interaction | Variant
4 | disrupting interaction strength | P52A;R67A

Variants of: B4
Conditions: with atg8_yeast ATG8, P38182

Row | effect of a mutation on the interaction | Variant
5 | disrupting interaction strength | Y242A;M245A

Variants of: B5
Conditions: with atg11_yeast ATG11, Q12527

Row | effect of a mutation on the interaction | Variant
6 | disrupting interaction strength | D52A;V53A;L54A;S55A;N56A;T57A;S58A;S59A
